Results taken from the supplement of paper PMC12042874.
± gives the uncertainty stated by the source.

Assay: amyloid nucleation score (Sup35N fusion, yeast selection) (log enrichment); library NNK2; higher = more nucleation; inactive = no reads after selection
Method in brief: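 The nucleation score is the DiMSum log enrichment of output over input reads, centred on the mode score of non-aggregating sequences. Only sequences with 100 or more input reads were scored, using Illumina sequencing of input and output plasmid inserts. Psi-negative yeast expressing Sup35N fused to peptides of 20 random codons were induced 24 hours with 100 μM copper sulfate and grown 7 days at 30°C on medium lacking adenine and uracil.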

| Substance | amyloid nucleation score |
| --- | --- |
| FSQNIVSSRVVTYKMNCNGM | 3.72 ± 0.044 |
| ISKLSARSLSRVVNLYKGVA | 0.85 ± 0.17 |
| LSLYIGFYMKGGSCRC | 0.007 ± 0.79 |
| VVYSSSFVAGLYDSMCWMWG | 1.49 ± 0.24 |
| YSSSKNTVVMSAKSMVRLRT | 0.52 ± 0.56 |
| NNLPTQIYYVLNSPSEVRLN | 0.579 ± 0.31 |
| WSYQYRLPILTTFSDFVWRK | -0.339 ± 0.28 |
| QDLVGGCQLSHHHCNLSCGF | inactive |
| TQVLYSSCFVVVLSYLSRQD | 4.51 ± 0.086 |
| SQGCVICGFYLLWHPNRHCQ | 9.447 ± 0.051 |
| QVGKQADFRVAWLRVIHVF | 0.292 ± 0.56 |
| FEFMNDFQSYVRMFRCLVFL | -0.401 ± 0.43 |
| FCWRNCLNVIDTF | -1.22 ± 0.35 |
| VATNCINMGS | -0.197 ± 0.79 |
| SALHCISLDVHRIFGSKNAR | 1.36 ± 0.46 |
| FMVWWFTIRVPEDCYQP | -0.5 ± 0.39 |
| NWKWVRSKVAWPMRSEHHVE | 1.65 ± 0.21 |
| CDVLRY | -0.825 ± 0.48 |
| SRNLTVNK | -0.072 ± 0.79 |
| SLVFNQAHWNRLIPTT | -1.02 ± 0.63 |
| SGFGGLEGFIRPSYSLLAGW | -0.424 ± 0.48 |
| LLAKNTSRNRFTHDFVPKVR | inactive |
| SCYIDRTRYWDGYFLLCSMD | 0.949 ± 0.74 |
| IPIIGITNEVPMSVRFPSIF | -1.07 ± 0.55 |
| CSFHVGNLTWWANVEARVVV | 0.176 ± 0.29 |

| Substance | amyloid nucleation score |
| --- | --- |
| LVTVSVVPSWSAVRPTGMNV | 0.84 ± 0.46 |
| HFVNMHH | -0.213 ± 0.76 |
| LQYAKSHRVSWDGMAANSPG | 0.067 ± 0.45 |
| CLRSCRPYSQTIINVA | 6.16 ± 0.062 |
| EGFMSFPTN | inactive |
| MSMLNRALGILKSTFMINRR | -0.058 ± 0.53 |
| FCLGRMLARPRRTCYTDENM | -0.126 ± 0.49 |
| LRLSSGLKSVRTRRRM | 0.904 ± 0.37 |
| LQLVMKCRVKCAFLPGGMAW | 5.246 ± 0.048 |
| MYRISPCVLRGY | 0.366 ± 0.34 |
| VIKGIEGVHGEKHVVYKVIC | 4.19 ± 0.065 |
| HAILPRCTFHSPMVYALYFT | 0.58 ± 0.65 |
| AYHTMGGWLRVAG | 0.005 ± 1 |
| KARWLIFDDVFCCCKFGGWW | 9.018 ± 0.053 |
| LQTAIVGSPRLVTFRIYIER | 7.197 ± 0.065 |
| RFGVSVTGDTSRCSGCGGAH | 4.01 ± 0.089 |
| YFSGCSSFVS | -0.046 ± 0.49 |
| DCPLYRWDTWRLSGSRT | inactive |
| DVEHPLYWPEDVLKASSETV | 1.91 ± 0.12 |
| FLRNWGTAWLVGFNSAKFIC | -0.955 ± 0.63 |
| KAAVMRHMSCCCYYHP | 0.845 ± 0.66 |
| IPMSRGVQF | 0.82 ± 0.14 |
| AVFRLFASVPGFNRRPGLEQ | 0.314 ± 0.25 |
| TPNYLSHTVVCVCINNVLIF | 4.74 ± 0.058 |
| KRQSRAVMVS | 0.037 ± 0.63 |

| Substance | amyloid nucleation score |
| --- | --- |
| NDSCELLCESITYTAWFSGQ | 3.22 ± 0.12 |
| KGCVDHVFIYGIN | -1.44 ± 0.41 |
| KAIGCAIKTFRYIYWIIWLL | inactive |
| SYYGFLSFCSKTCMPLMWLE | -0.844 ± 0.54 |
| LFYGLGLICFLISFPIELNH | inactive |
| RFNYEP | 0.262 ± 0.46 |
| YRSIC | -1.63 ± 0.75 |
| RRAENLMEFGLIRAFY | -0.007 ± 0.63 |
| TLTILRVTCPLFSDGIMFKR | 0.609 ± 0.47 |
| VGRTVMKWACIVE | 4.878 ± 0.034 |
| GECRRWKFGLWENVPDMSIK | 0.177 ± 0.48 |
| VVNTVYSFSE | 0.332 ± 0.35 |
| SSLEFYVFWYP | -1.14 ± 1 |
| ILNPFCTRFK | -2.26 ± 0.64 |
| YCSLLL | 4.79 ± 0.074 |
| GQYVQCNMSCVYVFLQWQRR | 6.262 ± 0.033 |
| QMISLYAKQGVFPFGLSCSC | 2.02 ± 0.11 |
| PLGPNSTYFVWASSWAFYRP | -1.65 ± 0.78 |
| KTGVGTYIPQWDCNGHEMVS | 0.423 ± 0.35 |
| CTMLLGSESEGWSLQIFVLL | 0.05 ± 0.62 |
| FALHGEDWSNSTISRNFWSR | -0.031 ± 0.35 |
| SKGGCTEFIEKTWNLCSCLV | -1.1 ± 0.78 |
| LVMVCMVSFENHYMLGTEVL | 2.71 ± 0.14 |
| MSLCGYNYI | inactive |
| VDYASGGARGFGMVLRAFLE | 0.132 ± 0.42 |

| Substance | amyloid nucleation score |
| --- | --- |
| SHIDMFAQECYLCFANVHRR | 2.78 ± 0.21 |
| VSLMKYQVELGNWKEPTCLG | 0.14 ± 0.56 |
| CMTGNYYQP | inactive |
| WGFTLWKLWRV | 0.676 ± 0.15 |
| RAVEEYAVPS | 0.878 ± 0.35 |
| LNLFWKQSGTVRLDDGWRSV | 0.969 ± 0.74 |
| YHSTTLTFERAQPSHNNTRL | 3.32 ± 0.1 |
| RCEFFGVGMSREKNMGCSKC | 0.875 ± 0.47 |
| QEVRSF | 0.6 ± 0.66 |
| LIGFLEEKVLLFIITWCFQ | inactive |
| FEAINMSQQCIYCFPMSRNI | 7.388 ± 0.053 |
| ILSCVARGCYYTTL | -1.38 ± 1.1 |
| NFFVFYIR | 7.06 ± 0.072 |
| FRLRMRSGYSARLSRFFCPL | 2.51 ± 0.077 |
| NCCEMNVLYLSIRLLFHVTA | 1.58 ± 0.097 |
| VWDHVAGARALTWLRMLLKQ | inactive |
| AANDMPMNSPIFSLGSDMPH | 1.01 ± 0.48 |
| CIMRGREQDFWQSDY | 0.116 ± 0.23 |
| RQARRRRTSRQHEKGV | 1.49 ± 0.16 |
| SDLLFVLASLSCLQWNKDIA | -0.457 ± 0.25 |
| GNLDRYRYLETDKSGAMLGV | 4.3 ± 0.064 |
| KLRIVMMNRIFTSNL | 5.16 ± 0.1 |
| EPGMKSRSNYMHGTKGEHHR | -0.131 ± 0.45 |
| SNYDGPGSYIYEKYCSSEEG | -0.703 ± 1 |
| KRYLTGSEVIVGWCC | 0.329 ± 0.38 |

| Substance | amyloid nucleation score |
| --- | --- |
| NWWLTHVHLVSFYVVSWGWV | 3.35 ± 0.12 |
| CYGYMIMSAFMVGHWEPDRM | 0.205 ± 0.77 |
| FNGVIFNGSSVNYYPFAHSF | 5.035 ± 0.036 |
| SLGHDSICWRWSLE | 5.49 ± 0.094 |
| VLVIGSIVYVCLSKDCCFNV | 9.543 ± 0.04 |
| TGDMQVAVYCVILGGFSMGM | 4.44 ± 0.055 |
| WANFWSGWKVTLVCCCKIVA | 3.7 ± 0.078 |
| YGRCVDLFCGIRYLHGSRLA | -0.299 ± 1.1 |
| LMLAYRLIFDDNRTGLSSAS | 0.211 ± 0.5 |
| DFLSVYSYIKWWAA | -0.886 ± 0.49 |
| VKPMMTFIATYGRYNHQFLS | 0.861 ± 0.43 |
| RLIYLCGSRGPNTEFVRVKR | 3.21 ± 0.055 |
| FYIGFYSPGLCVRFKFFSAR | -1.85 ± 1.1 |
| LKNRILPFSNHELIVAGLGL | -0.388 ± 1 |
| ASLGPRFTDRTVQSHVNTRC | 0.147 ± 0.41 |
| NTGWILPYCKRGNSALEGWL | 4.31 ± 0.056 |
| LMPGMVGDRRGCNDK | 0.49 ± 0.26 |
| CYRNNWTMWVVSQRYHRNGK | -0.289 ± 0.22 |
| TQSIALINTRVELTVDEFSF | -0.111 ± 0.65 |
| LLLSRGFMGVSKRSMVYRRV | inactive |
| IRSSWIANVLSANSRGRNNQ | 0.382 ± 0.33 |
| LLATSWSVLEDLYAGNDLYD | inactive |
| TVFSYSWQFYGMHSISDYMI | inactive |
| GEPLNGSAGLVGH | 0.234 ± 0.34 |
| RNSIFNG | -0.796 ± 0.62 |

| Substance | amyloid nucleation score |
| --- | --- |
| LPHKSLFDPLWRIGKILIQH | 0.034 ± 1.1 |
| ITISII | 0.044 ± 1.1 |
| YFTNFWLLCLLSG | 4.34 ± 0.079 |
| SFCDLWLLAQDHAKLLGFIA | -0.499 ± 0.55 |
| VVFVCN | inactive |
| FMSGRESAVCLFKNFSVLRS | 2.76 ± 0.084 |
| SMRYVVISKQRSILEISLRY | 3.46 ± 0.047 |
| SFVMYRNSGRVCGMRVASEW | 0.766 ± 0.22 |
| NNVRMYLSFRAIVY | -1.19 ± 0.76 |
| GYCSDGWFAECTEWEAPVSR | 0.343 ± 0.64 |
| CNFYCPRDPQSSIVSYTMSY | -0.159 ± 1 |
| CVSFVQSFCYIHIQLNYHCR | -0.43 ± 1.1 |
| VLFSRFDSVWHVAIAVSARV | 0.671 ± 0.42 |
| TIFSHVYLALLR | 0.382 ± 0.8 |
| RKVFLRLCLLVWLNG | -0.292 ± 0.3 |
| EFNCYGWKRRKRRCWGGKCR | 0.726 ± 0.41 |
| MGCCIYCYSRIDHL | 8.743 ± 0.055 |
| RAANLSLHSNGDTGGESVSD | inactive |
| FLIFDRSKCCCVDTRGSGGT | inactive |
| IEGYYGASRVRGMSMGLLWV | -0.17 ± 0.79 |
| MERIPVVSDMGRLGFSACRL | 0.821 ± 0.23 |
| NFVKRV | -0.509 ± 0.48 |
| DSDSFYIMPMVHMPNNFHRD | -1.41 ± 1.1 |
| MSPVCLCCYLPTRVYCKVSG | 5.85 ± 0.084 |
| IGISWLATWPIEFTRLSRMV | 1.53 ± 0.52 |

| Substance | amyloid nucleation score |
| --- | --- |
| KSCFWLRDI | -0.457 ± 0.28 |
| SAFYSDAL | 1.08 ± 0.54 |
| KGAFANL | -1.63 ± 0.55 |
| HYVPDPDITL | -0.504 ± 0.32 |
| EAHGSWL | 0.764 ± 0.38 |
| FMYWLGCYIRLLCDNLKQRG | -0.979 ± 0.49 |
| YTAWMALKNGRLVSGFKAR | 0.009 ± 0.34 |
| LALSFIMMCPYR | 4.95 ± 0.079 |
| NTGFNCCNHFFRADGSLVEC | 3.39 ± 0.15 |
| FAWNMLS | 0.285 ± 0.74 |
| SSYGFINYMTS | inactive |
| VFIFLGLPLFPMITSIDLGY | 2.28 ± 0.13 |
| HSLVCDN | -0.122 ± 0.39 |
| LCGSQFL | 0.705 ± 0.66 |
| GTCFQTINMGGCLIGGPG | 2.69 ± 0.14 |
| IIWYTTFVDLLTIIDDGRLW | 0.499 ± 0.49 |
| PMMWESESYPLIF | -0.268 ± 0.79 |
| SFGGARVSLLCCFPSTSIAS | 9.374 ± 0.036 |
| VKLPITGIERLLEARQGDQW | 0.757 ± 0.39 |
| CSNADFDSRVFTDANMIFPK | 4.01 ± 0.098 |
